Measured values taken from patent publication US20160279215A1, “NOVEL PEPTIDES AND COMBINATION OF PEPTIDES FOR USE IN IMMUNOTHERAPY AGAINST VARIOUS TUMORS” (immatics biotechnologies GmbH, priority 2015, published 2016).

Molecular target: T1, HLA-A*02:01 (Homo sapiens, UniProt P04439, D140Y/D185E/D98H/E176V/E277Q/G131W/G231S/I119V/I121R/I166T/I218V/L300P/L318F/N151K/N90K/P208A/P217A/Q86G/Q94H/R138H/R169H/T345S)
T1 construct: made in house
Experiment: MHC binding assay: UV-ligand exchange with β2m ELISA (peptide exchange yield)
Conditions: binding to HLA-A*02:01 evaluated by peptide exchange yield (UV-ligand exchange, β2m ELISA)
Excerpt: Candidate peptides for T cell based therapies according to the present invention were further tested for their MHC binding capacity (affinity). The individual peptide-MHC complexes were produced by UV-ligand exchange, where a UV-sensitive peptide is cleaved upon UV-irradiation, and exchanged with the peptide of interest as analyzed. Only peptide candidates that can effectively bind and stabilize the peptide-receptive MHC molecules prevent dissociation of the MHC complexes. To determine the yield of the exchange reaction, an ELISA was performed based on the detection of the light chain (β2m) of stabilized MHC complexes. The assay was performed as generally described in Rodenko et al. (Rodenko et al., 2006).
96 well MAXISorp plates (NUNC) were coated over night with 2 ug/ml streptavidin in PBS at room temperature, washed 4× and blocked for 1 h at 37° C. in 2% BSA containing blocking buffer. Refolded HLA-A*02:01/MLA-001 monomers served as standards, covering the range of 15-500 ng/ml. Peptide-MHC monomers of the UV-exchange reaction were diluted 100 fold in blocking buffer. Samples were incubated for 1 h at 37° C., washed four times, incubated with 2 ug/ml HRP conjugated anti-β2m for 1 h at 37° C., washed again and detected with TMB solution that is stopped with […]. Absorption was measured at 450 nm. Candidate peptides that show a high exchange yield (preferably higher than 50%, most preferred higher than 75%) are generally preferred for a generation and production of antibodies or fragments thereof, and/or T cell receptors or fragments thereof, as they show sufficient avidity to the MHC molecules and prevent dissociation of the MHC complexes.

Substance | Peptide exchange
24 (KVWSDVTPL; listed as Homo sapiens) [compound 24] | +++ (≧50 = +++)
136 (LLWDAPAKC; listed as Homo sapiens) [compound 136] | +++ (≧50 = +++)
1 (KLQEKIQEL; listed as Homo sapiens) [compound 1] | ++++ (≧75% = ++++)
28 (IKVTDPQLLEL; listed as Homo sapiens) [compound 28] | ++ (≧20% = ++)
12 (RLLDPKTIFL; listed as Homo sapiens) [compound 12] | +++ (≧50 = +++)
83 (GLLENSPHL; listed as Homo sapiens) [compound 83] | ++ (≧20% = ++)
69 (LKVLKADVVL; listed as Homo sapiens) [compound 69] | ++ (≧20% = ++)
137 (KLIYKDLVSV; listed as Homo sapiens) [compound 137] | ++ (≧20% = ++)
145 (ALEEKLENV; listed as Homo sapiens) [compound 145] | +++ (≧50 = +++)
107 (RVLPGQAVTGV; listed as Homo sapiens) [compound 107] | ++ (≧20% = ++)
79 (TVLEEIGNRV; listed as Homo sapiens) [compound 79] | ++ (≧20% = ++)
3 (RVIDDSLVVGV; listed as Homo sapiens) [compound 3] | +++ (≧50 = +++)
45 (FLPVSVVYV; listed as Homo sapiens) [compound 45] | +++ (≧50 = +++)
70 (GLTEKTVLV; listed as Homo sapiens) [compound 70] | ++ (≧20% = ++)
126 (QLREAFEQL; listed as Homo sapiens) [compound 126] | +++ (≧50 = +++)
128 (SILTNISEV; listed as Homo sapiens) [compound 128] | ++ (≧20% = ++)

Substance | Peptide exchange
67 (FLIENLLAA; listed as Homo sapiens) [compound 67] | +++ (≧50 = +++)
112 (ILAQDVAQL; listed as Homo sapiens) [compound 112] | +++ (≧50 = +++)
164 (MLIIRVPSV; listed as Homo sapiens) [compound 164] | +++ (≧50 = +++)
153 (KLVELEHTL; listed as Homo sapiens) [compound 153] | +++ (≧50 = +++)
100 (ALQSFEFRV; listed as Homo sapiens) [compound 100] | +++ (≧50 = +++)
72 (VLSTRVTNV; listed as Homo sapiens) [compound 72] | ++ (≧20% = ++)
61 (ALYPKEITL; listed as Homo sapiens) [compound 61] | +++ (≧50 = +++)
129 (KMASKVTQV; listed as Homo sapiens) [compound 129] | ++ (≧20% = ++)
64 (SLYAGSNNQV; listed as Homo sapiens) [compound 64] | ++ (≧20% = ++)
63 (KLLPMVIQL; listed as Homo sapiens) [compound 63] | +++ (≧50 = +++)
141 (NIDINNNEL; listed as Homo sapiens) [compound 141] | ++ (≧20% = ++)
123 (QTAPEEAFIKL; listed as Homo sapiens) [compound 123] | + (≧10% = +)
146 (VVAAHLAGA; listed as Homo sapiens) [compound 146] | ++ (≧20% = ++)
113 (FLFLKEVKV; listed as Homo sapiens) [compound 113] | ++ (≧20% = ++)
139 (IILENIQSL; listed as Homo sapiens) [compound 139] | +++ (≧50 = +++)
52 (TIGIPFPNV; listed as Homo sapiens) [compound 52] | ++ (≧20% = ++)

More lines, now with the values ahead:

Peptide exchange | Substance
+++ (≧50 = +++) | 167 (LVVDEGSLVSV; listed as Homo sapiens) [compound 167]
++ (≧20% = ++) | 194 (KLLEEVQLL; listed as Homo sapiens) [compound 194]
+++ (≧50 = +++) | 180 (RLYEEEIRI; listed as Homo sapiens) [compound 180]
++ (≧20% = ++) | 212 (MTLSEIHAV; listed as Homo sapiens) [compound 212]
+++ (≧50 = +++) | 256 (FLNDIFERI; listed as Homo sapiens) [compound 256]
+++ (≧50 = +++) | 237 (ALLEQTGDMSL; listed as Homo sapiens) [compound 237]
++ (≧20% = ++) | 281 (LLLESDPKVYSL; listed as Homo sapiens) [compound 281]
++ (≧20% = ++) | 203 (FLFVDPELV; listed as Homo sapiens) [compound 203]
++ (≧20% = ++) | 268 (SLDKDIVAL; listed as Homo sapiens) [compound 268]
+++ (≧50 = +++) | 207 (KLFETVEEL; listed as Homo sapiens) [compound 207]
+ (≧10% = +) | 227 (SEMEELPSV; listed as Homo sapiens) [compound 227]
+ (≧10% = +) | 259 (GPGIFPPPPPQP; listed as Homo sapiens) [compound 259]
+++ (≧50 = +++) | 228 (SLLELDGINLRL; listed as Homo sapiens) [compound 228]
++ (≧20% = ++) | 266 (FLLDKPQDL; listed as Homo sapiens) [compound 266]
+++ (≧50 = +++) | 193 (ALFHMNILL; listed as Homo sapiens) [compound 193]
+++ (≧50 = +++) | 278 (VLEDKVLSV; listed as Homo sapiens) [compound 278]
+++ (≧50 = +++) | 265 (FLLDKPQDLSI; listed as Homo sapiens) [compound 265]
++ (≧20% = ++) | 238 (HLQEKLQSL; listed as Homo sapiens) [compound 238]
+++ (≧50 = +++) | 231 (LLDDIFIRL; listed as Homo sapiens) [compound 231]
++ (≧20% = ++) | 272 (FVMEGEPPKL; listed as Homo sapiens) [compound 272]
+++ (≧50 = +++) | 286 (FLTEMVHFI; listed as Homo sapiens) [compound 286]
+++ (≧50 = +++) | 177 (ALINVLNAL; listed as Homo sapiens) [compound 177]
++ (≧20% = ++) | 192 (TLLPSSGLVTL; listed as Homo sapiens) [compound 192]
+++ (≧50 = +++) | 276 (RMPTVLQCV; listed as Homo sapiens) [compound 276]
++ (≧20% = ++) | 245 (ALLEEEEGV; listed as Homo sapiens) [compound 245]
+++ (≧50 = +++) | 182 (GLQDGFQITV; listed as Homo sapiens) [compound 182]
+++ (≧50 = +++) | 277 (KLQEELNKV; listed as Homo sapiens) [compound 277]
++++ (≧75% = ++++) | 178 (SLVSWQLLL; listed as Homo sapiens) [compound 178]
